From a protein production outcome set (Wang et al. 2014)

Test: label from the status in PepcDB records

Sequence	protein production
MALKSHLRACSRPFPRQIGRMRRRNKSLPAAFVSKRLSVLIISRKPEMKALTCMAVLAALVTGSAFAQTPPQTSTRKVDGTDNVYIFRYGGHQSMFVVTPKGVIATDPISYLRPAKPYIDAIKAVTDQPIKYVVYSHHHYDHIAGGQPFKDLGATFIAHRRTKERLLELKKQNALLADVVMPDQVVDDKKSITLGGTTLELNYVGRNHSDNSLVMRLPKEKIVFVVDFAPIESVQFRNIPDNVSPLEYIASLKKLASLDWERMIPGHPNAGGRLGTKKDVEDDIAYMEDLSAEVKKAADAGKCIDTAMKEVKLPKYEKWANYETALPANVERFCYWWGRGY	failed
MALLLFFLFIALLGFGILKINNRSILGGITLASGTLLSLVTLLFIGLDKIYLHFKNGDLITLAIAYLLIPAVFIGICLYFIFNSRTMQTKEGKSVTAKLSAGLGLNLLIALPAFLYLLSVGTAQIPYVLFLFLLFLLLMDLLLTFLFAAYVLYSWMYQMIPLKKAVDYIIVLGSGIRSEEVPPLLKSRLDKGIEYYEKNPTAKFVVSGGQGPDEPVAEAFAMKKYLLSQNIPAEAILMEDQSTTTYENMLFSKAIIQADWQKMPSDSKQPSVIFSTNNYHVLRGAMYAHRVGLKAEGVGAPTALYFLPTALIREYIALLVHDKRIVLFVFLLVTLLLGISILPI	failed
MALMTNKTRALLIGGHGKVALLATPMLIDASVQVTSMYRNPDHRSEIEALGATTLERDVTTLSVEDWADLLKDFDVVVWSAGNGGKNGADATYAIDRDAAIASIDGAASLGEKAPRYIMVSYIGSSTHTIDPSASFYPYAESKKAADEHLSSTNLDYLILAPAALTLDEVNGVEVIADTNEAAAGRTTSRVLVAEVITEFVVRDFPQTRVLPFVDGESPVSSIS	failed
MALMTNKTRALLIGGHGKVALLATPMLIDASVQVTSMYRNPDHRSEIEALGATTLERDVTTLSVEDWADLLKDFDVVVWSAGNGGKNGADATYAIDRDAAIASIDGAASLGEKAPRYIMVSYIGSSTHTIDPSASFYPYAESKKAADEHLSSTNLDYLILAPAALTLDEVNGVEVIADTNEAAAGRTTSRVLVAEVITEFVVRDFPQTRVLPFVDGLEHHHHHH	failed
MALQTEQFNANILRNGEWVESRTGERISISAPASGVALGSIPALSQEEVNDAIQGAKDAQKIWKIRPIHERVDLLYAWADLLEERKEIIGELIMHEVAKPKKSAIGEVSRTADIIRHTADEALRLNGETLKGDQFKGGSSKKIALVEREPLGVVLAISPFNYPVNLAAAKIAPALVTGNTVVFKPATQGSLSGIKMVEALADAGAPEGIIQVVTGRGSVIGDHLVEHPGIDMITFTGGTTTGERISEKAKMIPVVLELGGKDPAIVLDDADLKLTASQIVSGAFSYSGQRCTAIKRVFVQDSVADQLVANIKELVEQLTVGSPEDDADITPVIDEKSAAFIQGLIDDALENGATLLSGNKRQGNLLSPTLLDDVTPAMRVAWEEPFGPVLPIIRVKDANEAISLSNQSDYGLQASIFTKDTDRAINIGKHLEVGTVHINAKTERGPDHFPFLGVKKSGLGVQGIKPSLLSMTRERVTVLNL	not failed
MALSDTKLRKIKAPYNGEAELADRDGLSVRVSPKALITFNYRFRWEGKQQRIKLGRYPGLKLIDARKKVNEYRHNLDEGLDPRVVQNESRSHNLFGDMCEAFMTKYVMTELRPKTQTLYKSTFNKYVTPYKNIDIERYKYTDWIAYFDWVKKESSSANAGSVLKRFKAVANWAKARGQIKHSHLIDIPIKAIGSHQQKRERCLEWDEVIGLWRQIESSKSTPQCKTCIQLLLLTGARNAEIREARRDEFDLDKNIWLLPPERSKTKKQVRRPLSTGVIELINKLDLIYGQDREYLIAGDIKGKPLTTHAVNRFVQRMNNHLKYPHFVPHDFRRTIVTRLSEHKVELHVTEKMLGHELGGILTRYNKHDWIDEQREAYELYWQKVTLLLKN	failed
MALTATVDVELKIRHSVPQRREPTKWRRIMYAITGITGKVGGAMARALLAAGQPVRAIVRDATKGRQWAALGCDVAIATMEDAEALTQAFKGATAVFILPPPVFDPEPFYPEAQAVIDSVATALRAAKPARVVCLSTVGADAVQDNLLSQHTKMETALSALPLALTLLRPAWFLDNVAWDVSSARGAGLIHSFLAPTGRALPMVAAEDVGRVAATLIQQDWSGTRIVELEGPERVSPDDLAAAFTTVLGKPVRAVPVPRETWEALFRSQGMRNPQPRMRMLDGFNEGWIAFADEARTIKGTISATTVVQALVAGEGA	failed
MALVYLVQSDTTIGLLSKDSEKLNALKGRPKNQSVLIESADFSTLKSLVRAPNAFKNLIRRSAKTTFIYPNSKAVRVIRGRHGDFLNRFKTLYSTSANLTQCAYDKEIASNLADVIVSDERGLFESSSSKIFRLYKDKKVRIR	failed
MALWMDAGATPTTEKEKADLEAISALKESTAIEFKEEGNECVRKGKKHYSEAIDCYTKAISQGVLSDSETSILFSNRSHVNLLLGNYRRALTDAEESMRLSPHNVKAVYRAAKASMSLDLLNEAKSYCEKGIENDPSNEDMKKLLKLVNSKKQEKEQHEAQASQAVVEAKACLSAIENRGVKIGKAMYRELTGLKKPMLDKNNILHWPVLLLYAEAMTSDFVEDFCETDMFATHLDMMFSEDSPPLPWDKNNEYSRDVIELYYEASSGTPLPRSRVLQYLLEGTKGSQAETTGEEDTSATKTPSYLKGSSGMVKVNERRTLHDVLKEPKFVIPEIPVFYIVSKRSKFYKDFTAGKWTPPN	failed
MAMAVPVSARPQSPAEGFYAINNQFQTNGPKGFSEIKILANEDMFLRMDLPGVPDEGGLSVYHNRSQETVVVFAKAPKVHTHDSTERRYQTMTGIGCSCCAISSITTHMSDGVFRVILSKTRIDPHRSPCTDPALTGPVLQPHPLAFPQPTMAYESKQLPNGKLFVRADMPGVPKENFTVSVTNGRVKVTGQAPAVSHDSSGRFYSGDVAMLSTPVDIPSRRIKTIAKNGVIRLLIPPF	failed
MAMSVKTISPIEAHRLVTGGRAVLVDVRERHEIAREHIDGAIELPLTGFKHGDLGAAHGRKAIFFCHSGGRTRMYAGQIDAKARGVCEPYVLGGGILAWRRAGFPTVQGPKPPSLFQRLFGRKPAD	failed
MANAVVAIAGSSGLIGSALTAALRAADHTVLRIVRRAPANSEELHWNPESGEFDPHALTDVDAVVNLCGVNIAQRRWSGAFKQSLRDSRITPTEVLSAAVADAGVATLINASAVGYYGNTKDRVVDENDSAGTGFLAQLCVDWETATRPAQQSGARVVLARTGVVLSPAGGMLRRMRPLFSVGLGARLGSGRQYMSWISLEDEVRALQFAIAQPNLSGPVNLTGPAPVTNAEFTTAFGRAVNRPTPLMLPSVAVRAAFGEFADEGLLIGQRAIPSALERAGFQFHHNTIGEALGYATTRPG	failed
MANHKPEIVITYCTQCQWLLRAAWLAQELLSTFADDLGRVALEPGTGGIFRITCNGVQIWERKADGGFPEAKVLKQRVRDQVDPQRDLGHNDR	not failed
MANIAVQRIKREFKEVLKSEETTKNQIKVDLVDENFTELRGEIAGPPDTPYEGGRYQLEIKIPETYPFNPPKVRFITKIWHPNISSVTGAICLDILKDQWAAAMTLRTVLLSLQALLAAAEPDDPQDAVVANQYKQNPEMFKQTARLWAHVYAGAPVSSPEYTKKIENLCAMGFDRNAVIVALSSKSWDVETATELLLSN	not failed
MANLKVGDVLEDRYRIETPIARGGMSTVYRCLDLRLGRSMALKVMEEDFVDDPIFRQRFRREARSMAQLNHPNLVNVYDFSATDGLVYLVMELITGGTLRELLAERGPMPPHAAVGVMRGVLTGLAAAHRAGMVHRDIKPDNVLINSDHQVKLSDFGLVRAAHAGQSQDNQIVGTVAYLSPEQVEGGEIGPASDVYSAGIVLFELLTGTTPFSGEDDLDHAYARLTEVVPAPSSLIDGVPSLIDELVATATSINPEDRFDDSGEFLSALEDVATELSLPAFRVPVPVNSAANRANAQVPDAQPTDMFTTHIPKTPEPDHTAIIPVASANETSILPAQNMAQNMAQNPLQPPEPDFAPEPPPDTALNIQDQELARADEPEINTVSNRSKLKLTLWSIFVVAVIAAVAVGGWWFGSGRYGEIPQVLGMDEVQAVAVVEEAGFVAVAEPQYDNEVPTGSIIGTEPSFGERLPRGEDVSVLVSQGRPVVPDLSEDRSLSTVREELEQRTFVWVDGPGEYSDDVPEGQVVSFTPSSGTQLDVGETVQIHLSRGPAPVEIPDVSGMGVDQATRVLERAGLSVERTEEGFDAETPNGDVYGTSPKVSTEVKRGTSVVLQVSNAISVPDVVGMTKDEATAALAEEGLVVASTSIIPGEAASSADAVVTVEPESGSRVDPAHPQVSLGLAGEIQVPSVVGRKVSDARSILEEAGLTLTTDADDNDRIYSQTPRARSEVSVGGEVTVRAF	failed
